Data on 2 molecules can be found in patent US20030228607A1, “Screening method and modulators having an improved therapeutic profile” (priority 2002, published 2003).

The target in the experiment is T1, GAL4-human silencing mediator of retinoid and thyroid transcription (SMRT) receptor interacting domain 1 and … (yeast; human).
T1 construct: also called GAL4-SMRT ID1+ID2
T1 chain: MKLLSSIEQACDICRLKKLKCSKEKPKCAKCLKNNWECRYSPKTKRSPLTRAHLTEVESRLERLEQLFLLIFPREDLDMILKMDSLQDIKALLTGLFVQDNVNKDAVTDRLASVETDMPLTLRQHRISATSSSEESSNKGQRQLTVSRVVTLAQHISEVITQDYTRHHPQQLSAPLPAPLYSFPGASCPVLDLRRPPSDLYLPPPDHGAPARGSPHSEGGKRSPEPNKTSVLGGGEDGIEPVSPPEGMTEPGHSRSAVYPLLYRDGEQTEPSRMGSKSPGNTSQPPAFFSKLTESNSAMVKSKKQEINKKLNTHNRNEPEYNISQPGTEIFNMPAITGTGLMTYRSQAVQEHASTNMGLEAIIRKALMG
Briefly: mammalian GAL4/VP16 two-hybrid, CV-1 cells, luciferase reporter. A general note: Reporter assays use an easily measured gene product as a stand-in for the process of interest.

B1: VP16-LXR-LBD (VP16 activation domain fused to the ligand binding domain of human LXRβ, amino acids 155-461) (receptor)
chain: SRGRTRNNYGSTIEGLLDLPDDDDAPAEAGLVAPRMSFLSAGQRPRRLSTTAPITDVSLVDELRLDGEEVDMTPADALDDFDLEMLGDVESPSPGMTHDPVSYGALDVDDFEFEQMFTDALGIDDFGGREQCVLSEEQIRKKKIRKQQQESQSQSQSPVGPQGSSSSASGPGASPGGSEAGSQGSGEGEGVQLTAAQELMIQQLVAAQLQCNKRSFSDQPKVTPWPLGADPQSRDARQQRFAHFTELAIISVQEIVDFAKQVPGFLQLGREDQIALLKASTIEIMLLETARRYNHETECITFLKDFTYSKDDFHRAGLQVEFINPIFEFSRAMRRLGLDDAEYALLIAINIFSADRPNVQEPGRVEALQQPYVEALLSYTRIKRPQDQLRFPRMLMKLVSLRTLSSVHSEQVFALRLQDKKLPPLLSEIWDVHE
notes: also called VP16 fusion of LXRβ; VP16-LXRβ-LBD
In the case of B1, the binding result is listed as “binds”.

B2: VP16-LXR-LBD (VP16 activation domain fused to the ligand binding domain of human LXRα, amino acids 164-447) (receptor)
chain: SRGRTRNNYGSTIEGLLDLPDDDDAPAEAGLVAPRMSFLSAGQRPRRLSTTAPITDVSLVDELRLDGEEVDMTPADALDDFDLEMLGDVESPSPGMTHDPVSYGALDVDDFEFEQMFTDALGIDDFGGREECVLSEEQIRLKKLKRQEEEQAHATSLPPRRSSPPQILPQLSPEQLGMIEKLVAAQQQCNRRSFSDRLRVTPWPMAPDPHSREARQQRFAHFTELAIVSVQEIVDFAKQLPGFLQLSREDQIALLKTSAIEVMLLETSRRYNPGSESITFLKDFSYNREDFAKAGLQVEFINPIFEFSRAMNELQLNDAEFALLIAISIFSADRPNVQDQLQVERLQHTYVEALHAYVSIHHPHDRLMFPRMLMKLVSLRTLSSVHSEQVFALRLQDKKLPPLLSEIWDVHE
notes: also called VP16 fusion of LXRα; VP16-LXRα-LBD
In the case of B2, the binding result is given as “binds”.
